Measurements reported in patent publication US20150045540A1 (published 2015).

T1: Placenta Growth Factor (PlGF), human (human, UniProt P49763 21-149)
T1 chain: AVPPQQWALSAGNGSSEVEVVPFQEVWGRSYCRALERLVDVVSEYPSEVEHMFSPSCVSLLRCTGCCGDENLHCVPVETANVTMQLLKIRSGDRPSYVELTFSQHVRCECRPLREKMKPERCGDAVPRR


Experiments:
[1] = target: Hepatocyte Growth Factor (HGF), human (human, UniProt P14210 32-728); assay: ELISA
[2] = target: T1, Placenta Growth Factor (PlGF), human; assay: ELISA

Chain of Hepatocyte Growth Factor (HGF), human (P14210 32-728): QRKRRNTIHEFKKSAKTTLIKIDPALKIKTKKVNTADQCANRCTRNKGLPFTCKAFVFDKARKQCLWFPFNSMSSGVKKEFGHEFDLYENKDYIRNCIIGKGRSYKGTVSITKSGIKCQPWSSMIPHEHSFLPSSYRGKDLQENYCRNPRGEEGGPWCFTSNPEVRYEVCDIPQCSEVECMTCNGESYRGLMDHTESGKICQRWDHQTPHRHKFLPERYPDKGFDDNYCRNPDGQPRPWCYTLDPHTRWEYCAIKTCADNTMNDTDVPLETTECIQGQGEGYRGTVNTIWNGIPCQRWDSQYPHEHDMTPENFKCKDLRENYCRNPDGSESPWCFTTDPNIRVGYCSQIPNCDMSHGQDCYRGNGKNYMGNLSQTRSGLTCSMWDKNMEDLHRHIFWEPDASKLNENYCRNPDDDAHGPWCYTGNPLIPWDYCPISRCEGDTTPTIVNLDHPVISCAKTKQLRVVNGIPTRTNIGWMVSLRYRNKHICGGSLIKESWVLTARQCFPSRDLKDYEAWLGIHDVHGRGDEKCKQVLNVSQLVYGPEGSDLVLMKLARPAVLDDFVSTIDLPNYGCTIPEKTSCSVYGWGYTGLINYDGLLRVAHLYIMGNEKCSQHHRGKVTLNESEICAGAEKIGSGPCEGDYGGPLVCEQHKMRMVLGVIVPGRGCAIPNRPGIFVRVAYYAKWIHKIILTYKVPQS

Binder	EC50 [1] [nM]	EC50 [2] [nM]
HC 2/SLC 2 (antibody) chain 1: GQGTLVTVSSASQPVLHQPPAMSSALGTTIRLTCTLRNDHDIGVYSVYWYQQRPGHPPRFLLRYFSQSDKSQGPQVPPRFSGSKDVARNRGYLSISELQPEDEAMYYCAMGARSRCWPRGFQSKHNSVTHVFGSGTQLTVLSQPKATPSVTLFPPSSEELQANKATLVCLMNDFYPGILTVTWKADGTPITQGVEMTTPSKQSNNKYAASSYLSLTPEQWRSRRSYSCQVMHEGSTVEKTVAPAECS chain 2: MSWAPVLLMLFVYCTGCGPQPVLHQPPAMSSALGTTIRLTCTLRNDHDIGVYSVYWYQQRPGHPPRFLLRYFSQSDKSQGPQVPPRFSGSKDVARNRGYLSISVTHVFGSGTQLTVLSQQVQLVQ	0.051	0.049
HC 5/SLC 8 (antibody) chain 1: GQGTLVTVSSASTKGQPVLHQPPAMSSALGTTIRLTCTLRNDHDIGVYSVYWYQQRPGHPPRFLLRYFSQSDKSQGPQVPPRFSGSKDVARNRGYLSISELQPEDEAMYYCAMGARSRCWPRGFQSKHNSVTHVFGSGTQLTVLSQPKATPSVTLFPPSSEELQANKATLVCLMNDFYPGILTVTWKADGTPITQGVEMTTPSKQSNNKYAASSYLSLTPEQWRSRRSYSCQVMHEGSTVEKTVAPAECS chain 2: MSWAPVLLMLFVYCTGCGPQPVLHQPPAMSSALGTTIRLTCTLRNDHDIGVYSVYWYQQRPGHPPRFLLRYFSQSDKSQGPQVPPRFSGSKDVARNRGYLSISVTHVFGSGTQLTVLSQPKATPSQVQLVQ	0.055	0.115
HC 10/SLC 2 (antibody) chain 1: GQGTLVTVSSASTKGPSVFPQPVLHQPPAMSSALGTTIRLTCTLRNDHDIGVYSVYWYQQRPGHPPRFLLRYFSQSDKSQGPQVPPRFSGSKDVARNRGYLSISELQPEDEAMYYCAMGARSRCWPRGFQSKHNSVTHVFGSGTQLTVLSQPKATPSVTLFPPSSEELQANKATLVCLMNDFYPGILTVTWKADGTPITQGVEMTTPSKQSNNKYAASSYLSLTPEQWRSRRSYSCQVMHEGSTVEKTVAPAECS chain 2: MSWAPVLLMLFVYCTGCGPQPVLHQPPAMSSALGTTIRLTCTLRNDHDIGVYSVYWYQQRPGHPPRFLLRYFSQSDKSQGPQVPPRFSGSKDVARNRGYLSISVTHVFGSGTQLTVLSQQVQLVQ	0.063	0.166
HC 4/SLC 10 (antibody) chain 1: GQGTLVTVSSASTKQPVLHQPPAMSSALGTTIRLTCTLRNDHDIGVYSVYWYQQRPGHPPRFLLRYFSQSDKSQGPQVPPRFSGSKDVARNRGYLSISELQPEDEAMYYCAMGARSRCWPRGFQSKHNSVTHVFGSGTQLTVLSQPKATPSVTLFPPSSEELQANKATLVCLMNDFYPGILTVTWKADGTPITQGVEMTTPSKQSNNKYAASSYLSLTPEQWRSRRSYSCQVMHEGSTVEKTVAPAECS chain 2: MSWAPVLLMLFVYCTGCGPQPVLHQPPAMSSALGTTIRLTCTLRNDHDIGVYSVYWYQQRPGHPPRFLLRYFSQSDKSQGPQVPPRFSGSKDVARNRGYLSISVTHVFGSGTQLTVLSQPKATPSVTQVQLVQ	~0.041	
HC 6/SLC 10 (antibody) chain 1: GQGTLVTVSSASTKGPQPVLHQPPAMSSALGTTIRLTCTLRNDHDIGVYSVYWYQQRPGHPPRFLLRYFSQSDKSQGPQVPPRFSGSKDVARNRGYLSISELQPEDEAMYYCAMGARSRCWPRGFQSKHNSVTHVFGSGTQLTVLSQPKATPSVTLFPPSSEELQANKATLVCLMNDFYPGILTVTWKADGTPITQGVEMTTPSKQSNNKYAASSYLSLTPEQWRSRRSYSCQVMHEGSTVEKTVAPAECS chain 2: MSWAPVLLMLFVYCTGCGPQPVLHQPPAMSSALGTTIRLTCTLRNDHDIGVYSVYWYQQRPGHPPRFLLRYFSQSDKSQGPQVPPRFSGSKDVARNRGYLSISVTHVFGSGTQLTVLSQPKATPSVTQVQLVQ	~0.041	
HC 8/SLC 10 (antibody) chain 1: GQGTLVTVSSASTKGPSVQPVLHQPPAMSSALGTTIRLTCTLRNDHDIGVYSVYWYQQRPGHPPRFLLRYFSQSDKSQGPQVPPRFSGSKDVARNRGYLSISELQPEDEAMYYCAMGARSRCWPRGFQSKHNSVTHVFGSGTQLTVLSQPKATPSVTLFPPSSEELQANKATLVCLMNDFYPGILTVTWKADGTPITQGVEMTTPSKQSNNKYAASSYLSLTPEQWRSRRSYSCQVMHEGSTVEKTVAPAECS chain 2: MSWAPVLLMLFVYCTGCGPQPVLHQPPAMSSALGTTIRLTCTLRNDHDIGVYSVYWYQQRPGHPPRFLLRYFSQSDKSQGPQVPPRFSGSKDVARNRGYLSISVTHVFGSGTQLTVLSQPKATPSVTQVQLVQ	~0.041	

Further binders by falling EC50 [1], results first:

EC50 [1] [nM]	EC50 [2] [nM]	Binder
0.059	0.096	HC 9/SLC 6 (antibody) chain 1: GQGTLVTVSSASTKGPSVFQPVLHQPPAMSSALGTTIRLTCTLRNDHDIGVYSVYWYQQRPGHPPRFLLRYFSQSDKSQGPQVPPRFSGSKDVARNRGYLSISELQPEDEAMYYCAMGARSRCWPRGFQSKHNSVTHVFGSGTQLTVLSQPKATPSVTLFPPSSEELQANKATLVCLMNDFYPGILTVTWKADGTPITQGVEMTTPSKQSNNKYAASSYLSLTPEQWRSRRSYSCQVMHEGSTVEKTVAPAECS chain 2: MSWAPVLLMLFVYCTGCGPQPVLHQPPAMSSALGTTIRLTCTLRNDHDIGVYSVYWYQQRPGHPPRFLLRYFSQSDKSQGPQVPPRFSGSKDVARNRGYLSISVTHVFGSGTQLTVLSQPKATQVQLVQ
~0.041	0.057	HC 4/SLC 15 (antibody) chain 1: GQGTLVTVSSASTKQPVLHQPPAMSSALGTTIRLTCTLRNDHDIGVYSVYWYQQRPGHPPRFLLRYFSQSDKSQGPQVPPRFSGSKDVARNRGYLSISELQPEDEAMYYCAMGARSRCWPRGFQSKHNSVTHVFGSGTQLTVLSQPKATPSVTLFPPSSEELQANKATLVCLMNDFYPGILTVTWKADGTPITQGVEMTTPSKQSNNKYAASSYLSLTPEQWRSRRSYSCQVMHEGSTVEKTVAPAECS chain 2: MSWAPVLLMLFVYCTGCGPQPVLHQPPAMSSALGTTIRLTCTLRNDHDIGVYSVYWYQQRPGHPPRFLLRYFSQSDKSQGPQVPPRFSGSKDVARNRGYLSISVTHVFGSGTQLTVLSQPKATPSVTGGGGSQVQLVQ
0.041	0.053	HC 2/SLC 15 (antibody) chain 1: GQGTLVTVSSASQPVLHQPPAMSSALGTTIRLTCTLRNDHDIGVYSVYWYQQRPGHPPRFLLRYFSQSDKSQGPQVPPRFSGSKDVARNRGYLSISELQPEDEAMYYCAMGARSRCWPRGFQSKHNSVTHVFGSGTQLTVLSQPKATPSVTLFPPSSEELQANKATLVCLMNDFYPGILTVTWKADGTPITQGVEMTTPSKQSNNKYAASSYLSLTPEQWRSRRSYSCQVMHEGSTVEKTVAPAECS chain 2: MSWAPVLLMLFVYCTGCGPQPVLHQPPAMSSALGTTIRLTCTLRNDHDIGVYSVYWYQQRPGHPPRFLLRYFSQSDKSQGPQVPPRFSGSKDVARNRGYLSISVTHVFGSGTQLTVLSQPKATPSVTGGGGSQVQLVQ
~0.041		HC 3/SLC 10 (antibody) chain 1: GQGTLVTVSSASTQPVLHQPPAMSSALGTTIRLTCTLRNDHDIGVYSVYWYQQRPGHPPRFLLRYFSQSDKSQGPQVPPRFSGSKDVARNRGYLSISELQPEDEAMYYCAMGARSRCWPRGFQSKHNSVTHVFGSGTQLTVLSQPKATPSVTLFPPSSEELQANKATLVCLMNDFYPGILTVTWKADGTPITQGVEMTTPSKQSNNKYAASSYLSLTPEQWRSRRSYSCQVMHEGSTVEKTVAPAECS chain 2: MSWAPVLLMLFVYCTGCGPQPVLHQPPAMSSALGTTIRLTCTLRNDHDIGVYSVYWYQQRPGHPPRFLLRYFSQSDKSQGPQVPPRFSGSKDVARNRGYLSISVTHVFGSGTQLTVLSQPKATPSVTQVQLVQ
